Reference: the NTF2 design screens of Basanta et al. (2020)

Assay: protease stability score; higher = more stable; yeast display proteolysis, trypsin and chymotrypsin;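 further: log10 excess protease needed over predicted unfolded state with 0 meaning unfolded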

Compared with “DEKANTQAKRLLDVMNSGDEEKILRQMDEDVEVVIGDTKVKGREDIRRWMQKVLKELRVVYDLKHLRAHNGKIDIKAKMHNNHNGQPNSNDVIIIAKIHNGRFKHFEVHTQS”, “DEKAQDILKEIANAIRTNNPSQLKNLLDPNAKVKIGDKEFHGMDQLQEDVQRKKEKMRVDFDVRRVEVQGETVHARARVVIHHNGKPATMTYSMIVHIKNGRVRELQVNISETDKEKQKS” is higher in protease stability score: 0.804 for the first, 1.62 for the second.

First: DEKAQTRVQDYLRALQNGDHKRLREYMDENVHLRVGDKEVHGRTTAANEIVKEVRNQEMSMSIKRVRASENHVQMEVVVQVEHNGKPREFSFQLNFKLENGQAKEIKYKIDPTVLKNIRK
Second: DEKARKILKKMMHALEKGDEDKVRHLLDPNVKVRIGDKDITGREEVARNIFKTLQSMRVKIDRFHVEAKGDKVRAHQTAKAQHNGQPRRYQATVTARIHNGHFQRIDIQVDK
The protease stability score of the first is lower: 0.507 for the first, 0.944 for the second.

First: DEKDAEKVMRELAKAAVNGNYKKAVQLVKEDVQVEYMDQRTHGKEKLKEMLKKFTDLGAEVEYKEVHVKGDTVTVKVEAKMDGKKVKFKVQYVVTDHRLDKVTVKYSEEAYKVIKHG
Second: DEKDAREWVKDREQNDFDQISRMMDENVKLEYGNKEVHGRERVNTELKKEEETADHVSIDRVEVEEGRAVIDAVVRFNGKDFKMVVTVSMENGKVKYIRDRFTDEQLEEDFVKQFN
The protease stability score of the first is lower: 0.525 for the first, 0.728 for the second.

Compared with “DEKDEAVKLLEHLMEALRRGDEDHARSLADPNVRADIGDRDYSGRNKVAQEWIRRATQADHLELRIRDVRVDGNEVTLEAELSMKVNGETHSDTVHFQFEKHNGRVVLVHVQFK”, “DEKDETVVRKWLEAQHTGNPEEAKHQVDKNVDIRVGDHKVTGRHQIMHNLEQRKKSARFELQLTHLSASNGKVTIQIDVRINYNGRPFTDTLHATAKIKNGQLHSFSVDVDEEYLKKVKS” is lower in protease stability score: 1.56 for the first, -0.272 for the second.

First: DEKDHARHLVKRLLHAIRTGNPDEAMRLAPPNVRVSYGDTQIHGREQFHKWVKTIRDTVDRQRFTIVNVTVHNGQANVSIRYRLNHNGKDDKNEMTARFVEHNGQLKLVSMSRS
Second: DEKDHENVARNLVTAIVQGDPDRFKELLDKNVKFKYGETDVKGKDNAERVMKDFIKEADQVRVQTLSFHGEHIVINMVADVNGEEQRFQIRAKVHNGRVKEMVWHSR
The protease stability score of the first is lower: 0.522 for the first, 1.5 for the second.

Going from “DEKDKARKLNDRVREVMETGDPRKFTELADPNARYIIGDKEFHGTENITKYAKTLRDQVDHVDVKVDHVNVQGNKVVADMKFTAEKNGSRLHYRMIVVAVIQGDNVNAQQVHFK” to “DEKDKARRMAETIDKLAERNDFEELAKNADPDAKVTVGDKTFHGEENLVKHLQEERKRIDQVRIEVKDVKVQGDEIRINAKYEATHNGRRVDQQVRVIVEVHNGRLVISEMQYE”, the protease stability score falls from 1.18 to 0.979.

Going from “DEKDKATKMMETIKQAWDRNNPQQVASQFDKDAHIRVGDKMIHGHEQLKEFVQDVLDTYDHIKLTVTSVKQHNGRVVIVVQVHLEHNGRNDTRHYVVIIEVDNGHIRIKTMVDK” to “DEKDKDVADELRKAYHTGDHNRLREMVDKDVKFQVGDQDYHGRETFMKLNHTERNEIRIEIQSIRVHVHNGRVTVKQVVVREHNGRPTRMQQVLTIDAHNGKIKKMFIKDDQ”, the protease stability score falls from 1.16 to 0.069.

Compared with “DEKDLEELAKDVIEAYQDGDEQRLRNNFDKDARWHIGDKTFHGRERNVRHLVEEAKRVDHIHVTTMEVQGNTVRMVLRMNHNGKSDHVDIQITFENGRAQSVTVTKP”, “DEKDMEQQDRVFRHGNEKKLEDLVDEDARVEVGNRRYHGREQVVRFFQQQVKQVDHRTIRSVKLTGDKFDAVLQVVINGQTYTYRFKAKVHNGKVKVLRVEFTDPQREKEFEKQLD” is lower in protease stability score: 0.369 for the first, 0.206 for the second.

Going from “DEKDNKTLHKIIRHGDWKKLQDLADENASVDIGNKKFHGRREVSKAMERLREKVDSVQYHSITVEGNSARIVYNLEVNGNRVKVQMKFSMHNGHLQEVVIRATNEEDSKKIDKQLG” to “DEKDNKTYADKVAEMLKHNDPRTARELVDPNAKVQVGDSEVHGREQIENLIKTWNEQVDHVEIKKYRVEGDKVEITFVAESNGKRTHFKVVLKVRNGRATHMTIKRK”, the protease stability score falls from 0.724 to 0.157.

First: DEKDQEQILRELAEIMKSGDEHEMENLADENVKVKIGDKTLKGKEQFRHQLKRERDRVDHLKILDMEAQGDRFIIRWQEEFNGQTRRMQVDIHIKNGKIKSAEYRHQ
Second: DEKDQTRKAEKAARIFQHGNPDDVREMADEDVKVQIGDNRINGRHNLDTEVKELRDRVDDAKIEDFRASGNTIVLHIRFVVDGVDVHITIHINYHNGKAKRIDVKYTDERQKRRQDS
The protease stability score of the first is lower: 0.579 for the first, 0.739 for the second.

First: DEKDVEKIMKKMDETFVKGNTEELEKLGKEDVEVQYGDKREKGPDAIRKVLEKVKQLGIKVEYKEVHIKGDTATVKVEADMAGQTARFEVTYVVRGNRVDRVVVKYDEEAQKVIKHG
Second: DEKDVEKLQRLIKTGNEDHIANEADPNVQVTIGDDVIHGREEAVRQIQKWQRQVDHVEIKSMESQGEKVHVRRVLTVNGKNFEFTLQAEMHNGTLTHFDIQFRSEEDNKRFLKVVS
The protease stability score of the first is higher: 0.772 for the first, 0.32 for the second.

First: DEKDVERVLEAIKTNNRSEIRNQADPNARARVGDKKLHGMEDAAHKFAKFLDRADNHEVKDVSVDGDRATMDVKVRVDGEDVRFVVKFQVKNGRITHLEVEATSDHVDRRAEQAMK
Second: DEKDVHLARKYYQNFRDGDPDKLKRMADKDAKMSVGDKHLHGMEKIATDLQREHEEMHIDRKIDDVKVNGDKAIVHLKVNINVDGKPTSDSVTVIFKFENGKITTLEYRFDPDKQRKINK
The protease stability score of the first is higher: 0.581 for the first, 0.294 for the second.

Going from “DEKDVKTAVKDFNTGSFDRFKDLADKDVTARIGNHTVKGHENFQHMMKNLKDRIDHFDVDSMTIKGNEAQMEYRFEINGHDIVVILRVDIHNGRIKHMEVEFRNEEQKKRFDDNQG” to “DEKDVRILEEYVNAWNTNDPDTLNNLADPNARFKIGNKEFQGRDTLDRLAKQLRKEMRVTVHDVHAKDDDGRVDAKVDAVMHYNGKPNRDTFHFDAKVHNGRIRELNVQFDEKRKKKVDS”, the protease stability score falls from 0.945 to -0.065.

Going from “DEKDVRRLSKYLRALQKNDPDEVRRMADPNAKAEVGDKRIHGRDEFSKHVETRRRQMRITIEHYEIKNQGDKVELNVVRRSEHNGKPRRNSVRATYVFDNGKIHSYSVKHVP” to “DEKEAEHVSRLVRENDFQTLRDQADKDARVRIGDREVHGRERLRSQLHKLERRIDSLEVHRVNNHPNHFHVDVVITVNGQKVTFRLNIHVHNGRIKSIEIEFTDEDQKRNMNEVFS”, the protease stability score rises from -0.133 to -0.081.

Going from “DEKEAKKLLEQFAKKVVNGDYEEVVKHVKDDGEAEYGDERKHGPDAVETFIRKYQKLGIKVTYDEVHVEGDTVTVKVRADYAGQTAHFKFQYHVRDQRLDRVEVKYDETAQKMIKHG” to “DEKEAQKLLEKIAKTMKNGDTETAKKLGKDDVEVKYADDEHHGPDAIKKMLEKLKKLGLEVEYKEIHVEGDTVRVKVQVHHGGTTAHMEVEYQARGRKVDNMRVKYDERAKKLIKHG”, the protease stability score falls from 0.542 to 0.471.

Compared with “DEKEDKKVLERMAKLFVSGNKEEVQKMGKDDVEVVYGDETYHGPDAARKVIERVKKLGAKVEYKEVHVEGDTMTAKVEADIAGKRVRFHVTYKATGNRVDRMEVKYTKEAQEVIKHG”, “DEKEDLTRWIEQFVHNLEHGDEERLSQLADPNARFKYGDRTLHGMENAIKTLADVMRRVDQVRIRINDITHHENRVIVDLSFVLNHNGQERHYNAKMVAYIHNGTFRIETASMK” is higher in protease stability score: 0.895 for the first, 0.929 for the second.

First: DEKEDRKLLQQLAEMFQNGDVERVRKLGKDDVEAEYGDERQHGPDAMKKFVERVKKLGAKVEYKEVHVEGDTVTAKVQADYAGQTVEMHVTYQAQGRRMDRVKVKYDETAQKVIKHG
Second: DEKEEAEKFFEQYKHALHRGDPDQMANLADKDVRAEIGDKVVHGRDQLMTYVKTLKEHYDDISLKLKDVQVSGDKAQLHAVLTLNHNGKNDKIHIVIRMVRQGDELVMTSITYR
The protease stability score of the first is lower: 0.566 for the first, 0.935 for the second.

Going from “DEKEEAHRALTAMHKMMTGDFKEVMKNADENVHVEIGDKEFHGREDLHDFAREIQERVDDFRVSSVTAKGDSAVLNVRQDYNGRNERVRLEVQVSNGKIKHVRFQTG” to “DEKEEARELMERLREIIETGNEREAKKLADKDARNNVGDKVLHGREEIVRQLITLYKTADHVDLKFRDYRVDNGKFTMDMKVRFHHNGNTIERRYQMSFDTHNGRLTATRYRNS”, the protease stability score rises from -0.341 to 1.06.
